Target: Flightless I protein (human, endogenous in MET-1 and CC keratinocytes) (human) (UniProt Q13045)
Experiment: cell-based or functional assay

Chain of UniProt Q13045 (Q13045 whole entry): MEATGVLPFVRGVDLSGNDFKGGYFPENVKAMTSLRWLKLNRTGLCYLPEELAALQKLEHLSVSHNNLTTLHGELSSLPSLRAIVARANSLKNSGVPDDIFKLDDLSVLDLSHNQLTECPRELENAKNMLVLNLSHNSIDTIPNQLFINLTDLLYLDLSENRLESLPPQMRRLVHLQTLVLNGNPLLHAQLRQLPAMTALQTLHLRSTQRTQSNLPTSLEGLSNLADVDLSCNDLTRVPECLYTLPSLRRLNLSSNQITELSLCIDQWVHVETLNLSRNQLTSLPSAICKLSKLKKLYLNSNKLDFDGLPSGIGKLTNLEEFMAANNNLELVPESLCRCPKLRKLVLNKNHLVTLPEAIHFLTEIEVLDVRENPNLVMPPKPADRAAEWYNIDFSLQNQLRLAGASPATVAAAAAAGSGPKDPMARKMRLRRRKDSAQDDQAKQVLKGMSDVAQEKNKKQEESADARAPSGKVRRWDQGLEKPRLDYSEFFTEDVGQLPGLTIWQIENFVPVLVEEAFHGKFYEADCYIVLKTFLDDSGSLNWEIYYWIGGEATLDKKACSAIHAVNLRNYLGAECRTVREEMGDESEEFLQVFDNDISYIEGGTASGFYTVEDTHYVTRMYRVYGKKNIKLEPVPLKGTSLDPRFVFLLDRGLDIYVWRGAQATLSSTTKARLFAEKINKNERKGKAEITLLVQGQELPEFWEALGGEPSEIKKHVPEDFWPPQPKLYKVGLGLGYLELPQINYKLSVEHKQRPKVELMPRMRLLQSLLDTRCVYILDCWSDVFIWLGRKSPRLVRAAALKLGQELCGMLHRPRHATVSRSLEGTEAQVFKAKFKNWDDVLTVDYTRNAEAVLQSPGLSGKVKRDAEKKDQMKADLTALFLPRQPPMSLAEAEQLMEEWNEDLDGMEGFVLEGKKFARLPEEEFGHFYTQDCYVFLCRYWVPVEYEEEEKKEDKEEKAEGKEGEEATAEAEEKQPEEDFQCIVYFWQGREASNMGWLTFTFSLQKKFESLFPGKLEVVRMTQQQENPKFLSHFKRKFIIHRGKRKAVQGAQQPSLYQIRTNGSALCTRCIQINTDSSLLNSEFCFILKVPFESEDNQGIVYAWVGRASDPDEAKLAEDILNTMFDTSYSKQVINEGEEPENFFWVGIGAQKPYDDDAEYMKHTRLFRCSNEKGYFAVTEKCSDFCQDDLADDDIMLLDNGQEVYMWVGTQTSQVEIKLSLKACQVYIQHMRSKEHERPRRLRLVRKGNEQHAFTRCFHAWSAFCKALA

rFLAP-1 protein (LRRFIP1 (657-784) Protein-H00009208-Q01, Abnova Technologies) (from UniProt Q32MZ4 657-784)
decrease in cell invasion properties of RDEB-SCC (CC) cells, 3D organotypic model: 30%
decrease in cell invasion properties of sporadic SCC (MET-1) cells, 3D organotypic model: 60%
